Experimental data: the supplement of paper PMC9732359
± gives the uncertainty stated by the source.

Assay: protein stability index of a GFP-peptide fusion (yeast GPS) (PSI 1-4); higher = more stable; sorted into four equal gates, so the index is relative within each strain
Procedure, shortened: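 Plasmids isolated from each sorting gate were PCR-amplified and Illumina-sequenced, and barcodes assigned the reads to strains. The gates, four of equal size, were set by GFP/Cherry fluorescence ratio on mid-log cultures in leucine-free medium. These cultures were yeast carrying a pooled library of tiled 17-residue yeast protein peptides fused downstream of GFP on a plasmid that also expresses Cherry. The protein stability index is the sum of every gate's read frequency times its gate number.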

Sequence	protein stability index (doa10∆)	protein stability index (pdr5∆)	protein stability index (san1∆)	protein stability index (ubr1∆)
AYHQKYVDEQSKNELKK [RPS16A]	2.5 ± 0.093	2.02 ± 0.094	2.02 ± 0.13	2.94 ± 0.12
CGGINDSIPYPQIVKLF [ECM29]	1.56 ± 0.07	1.31 ± 0.06	1.96 ± 0.086	1.71 ± 0.049
CGHRILLKARTKRLVQF [RPC10]	1.43 ± 0.11	1.99 ± 0.13	1.68 ± 0.18	1.22 ± 0.052
CIQVNCLNCEKSKLFEW [SNM1]	3.11 ± 0.065	3.29 ± 0.058	3.13 ± 0.05	3.16 ± 0.052
CLEACSFILSSLEDPQV [YDL116W/NUP84]	2.68 ± 0.048	2.71 ± 0.054	2.87 ± 0.038	2.75 ± 0.042
CLMRSLHKLELKAKNQE [DSN1]	1.21 ± 0.06	1.31 ± 0.067	1.19 ± 0.16	1.16 ± 0.051
CLQDALDAIDDFIQLKQ [SSN2]	2.73 ± 0.081	2.6 ± 0.056	2.2 ± 0.063	2.92 ± 0.06
CLTMFEDRNESVNIAFA [ECM29]	2.42 ± 0.13	2.52 ± 0.094	2.81 ± 0.11	2.5 ± 0.073
CNEEQTLEAKIGGLLSK [RPO31]	3.16 ± 0.059	3.25 ± 0.059	2.99 ± 0.052	2.91 ± 0.05
CNSIINKLGALKTNFET [RPB11]	2.57 ± 0.089	2.42 ± 0.099	2.68 ± 0.088	3.05 ± 0.17
CSGSGMGGVSALRGMFK [FAS2]	3.64 ± 0.097	3.68 ± 0.08	3.37 ± 0.096	3.43 ± 0.067
CSKAMGDLASLVLLNGR [RPP1]	2.84 ± 0.061	2.9 ± 0.05	2.62 ± 0.058	2.73 ± 0.037
CSNESFASIPVSNSISR [SNU114]	2.55 ± 0.069	2.67 ± 0.057	2.46 ± 0.078	2.7 ± 0.062
CSNPTCGAGVFLANHKD [RPS31]	3.06 ± 0.12	2.82 ± 0.21	2.57 ± 0.24	2.73 ± 0.14
CSPKLPVEKVQRIAKND [DLS1]	2.86 ± 0.29	3.32 ± 0.12	3.17 ± 0.13	3.4 ± 0.12
CSPWSLQISDIPAAGNN [SRB5]	2.07 ± 0.04	2.21 ± 0.04	1.96 ± 0.055	2.41 ± 0.032
CTSLMDIIVAIKIFELK [IRR1]	2.1 ± 0.2	1.41 ± 0.16	2.13 ± 0.16	1.36 ± 0.072
CVEISHISKIIGLDTQQ [RPN6]	2.38 ± 0.17			
CVYSGLIPDGRHLVNRG [PRE10]		1.82 ± 0.22	2.1 ± 0.14	
CWPKDSRMRLIRQDVNL [PRP8]	2.52 ± 0.081	2.68 ± 0.09	2.72 ± 0.067	2.76 ± 0.12
DADTEDPHSASLINSHL [RPC82]	2.9 ± 0.084	3.27 ± 0.085	2.97 ± 0.078	3 ± 0.13
DAELMADEEEEIVDTYQ [ISW2]	1.32 ± 0.15	1.3 ± 0.27		1.24 ± 0.25
DALKVVLRTALVHDGLA [RPS12]	2.5 ± 0.17	2.51 ± 0.14	2.72 ± 0.098	3.25 ± 0.1
DALVKRFKNSVKWYHFD [PRE7]	3.19 ± 0.13	3.37 ± 0.12	3.18 ± 0.072	3.08 ± 0.07
DAVKDFKLGKFNYVAVG [QCR2]	3.2 ± 0.24	1.52 ± 0.14		
DCLDKLLNDECTESTRE [SNF2]	3.5 ± 0.14	3.4 ± 0.13	3.48 ± 0.091	3.41 ± 0.17
DCQFWETWLGSQCRLHE [PRE2]	2.22 ± 0.096	2.1 ± 0.14	2.59 ± 0.11	2.6 ± 0.09

Sequence	protein stability index (doa10∆)	protein stability index (pdr5∆)	protein stability index (san1∆)	protein stability index (ubr1∆)
DDDDSRKSAPVDSWDRE [SKP1]	3.15 ± 0.047	3.21 ± 0.048	3.21 ± 0.048	3.23 ± 0.044
DDDILIIRPILGKVRFA [SRB4]	1.51 ± 0.056	1.66 ± 0.092	1.93 ± 0.15	2.56 ± 0.05
DDELMNWRRLSGRNIHL [SSN2]	3 ± 0.088	2.91 ± 0.074	3.01 ± 0.087	3.19 ± 0.09
DDIVSHQGTPLGSHSSS [REC8]	3.2 ± 0.15	3.37 ± 0.12	3.04 ± 0.16	3.3 ± 0.095
DDLADDDFEEDEDEEDD [RPC31]		3.31 ± 0.12	3.21 ± 0.09	3.46 ± 0.29
DDLIAEENPIMQTALRR [QCR7]		3.24 ± 0.22	2.92 ± 0.15	3.06 ± 0.13
DDPLENMFGDYSNEPFN [SNF6]	2.98 ± 0.087	2.81 ± 0.069	3.26 ± 0.085	3.16 ± 0.058
DDPTQLVSRGGCGNTQP [RPO21]	3.18 ± 0.12	2.55 ± 0.19	2.97 ± 0.11	3.04 ± 0.088
DDRGPVLESIVARTFWA [BRR2]	2.67 ± 0.09	2.07 ± 0.057	2.9 ± 0.11	2.85 ± 0.077
DDSFFNETNDKKRNPSK [PRP28]	3.16 ± 0.098	2.96 ± 0.1	3.13 ± 0.072	2.85 ± 0.084
DDSRNPDCKIKIAHGTT [PRE2]	2.63 ± 0.086	2.77 ± 0.067	2.72 ± 0.076	2.84 ± 0.078
DDTKETVYISSIALLKM [RPN11]	3.09 ± 0.087	2.77 ± 0.084	2.71 ± 0.048	2.93 ± 0.055
DDVTCDKLSVSEISDGK [SIN4]	2.97 ± 0.073	3.11 ± 0.078	2.81 ± 0.08	3.29 ± 0.058
DEAKEKQLVEKAELRLA [ECM29]		3.26 ± 0.24		3.27 ± 0.16
DEDKFKKLKPIVAKYDP [PRP28]	2.78 ± 0.077	2.9 ± 0.088	2.9 ± 0.094	1.98 ± 0.059
DEESLVKYMPEQKITEI [RPO21]	3.23 ± 0.12	2.94 ± 0.098	2.99 ± 0.1	3.12 ± 0.056
DEGMESIEMEEETDDED [RRI2]			3.26 ± 0.18	3.35 ± 0.14
DEHNELMRQALAIKDSK [RPO21]	2.61 ± 0.05	2.93 ± 0.063	2.29 ± 0.058	2.91 ± 0.044
DEINTAQDKWHLLPAFL [RET1]	3.51 ± 0.16	3.31 ± 0.13	3.29 ± 0.07	
DEKVTILVDSLTGNQLP [SWI1]	2.76 ± 0.057	2.72 ± 0.064	2.9 ± 0.04	2.95 ± 0.046
DELELEDAIHIALLTLK [PRE8]	3.04 ± 0.076	3.11 ± 0.065	3.07 ± 0.062	3.15 ± 0.087
DELETKAEKKVELHGKR [PRP8]	2.84 ± 0.19	2.95 ± 0.17	3.4 ± 0.26	2.63 ± 0.18
DELITEGNEKLAAVPAA [RPP2A]	2.71 ± 0.09	2.92 ± 0.099	2.74 ± 0.083	2.78 ± 0.09
DESDSENDIEIKGPEFK [YLR335W/NUP2]	2.88 ± 0.11	2.92 ± 0.21	3.03 ± 0.13	2.96 ± 0.095
DETTVPSYYYYVDPETT [ROX3]	2.99 ± 0.08	3.04 ± 0.072	3.01 ± 0.049	3.25 ± 0.065
DEVITEGQADIDMESDV [POP7]	3.18 ± 0.068	3.17 ± 0.058	3.33 ± 0.057	3.22 ± 0.048
